Measurements published in PMC9256654, “Mechanistic basis for maintenance of CHG DNA methylation in plants” (Nature Communications, 2022).

Biological target: T1, Zea mays ZMET2 (residues 130-912), core fragment harboring the CD, BAH and MTase domains (Zea mays, UniProt Q9AXT8 130-912, in the crystallised complex C517 is covalently linked to the target 5-fluorocytosine (fC10) of the hmCAG DNA)
T1 construct: ZMET2, chromomethylase, CMT3 ortholog of Zea mays, residues 130-912; in the enzymatic assays and the EMSA the free protein was used; also called WT ZMET2; source: E. coli BL21 DE3 (RIL), purified (Ni-NTA, Heparin HP, Superdex 200); not shown: His6-SUMO, N-terminal, cleaved
T1 sequence (looked up): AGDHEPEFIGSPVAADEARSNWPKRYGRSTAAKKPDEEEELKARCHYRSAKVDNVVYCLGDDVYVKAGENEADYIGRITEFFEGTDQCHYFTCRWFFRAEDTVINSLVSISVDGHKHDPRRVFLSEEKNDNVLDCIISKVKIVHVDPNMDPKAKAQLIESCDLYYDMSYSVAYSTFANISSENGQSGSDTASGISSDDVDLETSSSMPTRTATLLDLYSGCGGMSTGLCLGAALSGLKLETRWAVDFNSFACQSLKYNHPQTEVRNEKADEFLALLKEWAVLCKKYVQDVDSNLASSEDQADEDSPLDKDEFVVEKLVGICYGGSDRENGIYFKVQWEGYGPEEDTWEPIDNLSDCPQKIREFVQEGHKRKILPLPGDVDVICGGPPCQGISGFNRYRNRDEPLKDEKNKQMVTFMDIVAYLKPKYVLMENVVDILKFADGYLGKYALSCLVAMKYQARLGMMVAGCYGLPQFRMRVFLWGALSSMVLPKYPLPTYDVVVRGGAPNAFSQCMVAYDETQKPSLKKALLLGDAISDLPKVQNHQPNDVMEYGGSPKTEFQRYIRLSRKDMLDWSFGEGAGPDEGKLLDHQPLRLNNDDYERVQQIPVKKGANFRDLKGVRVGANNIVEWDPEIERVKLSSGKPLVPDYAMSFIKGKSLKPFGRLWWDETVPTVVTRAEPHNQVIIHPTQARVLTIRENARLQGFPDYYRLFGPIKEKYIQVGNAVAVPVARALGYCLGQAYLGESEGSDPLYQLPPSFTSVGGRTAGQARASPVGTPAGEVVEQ
Assay: crystal structure; covalent ZMET2-hmCAG DNA complex with the H3_(1–32)Kc9me2 peptide and SAH; sitting drop at 4 °C, 0.1 M sodium citrate pH 5.5, 15% w/v polyethylene glycol 6000
Details: both partners purified

B1: histone H3 peptide residues 1-32 harboring the Kc9me2 modification (methyl-lysine analog of H3K9me2) (peptide)
peptide: not shown
modifications: Kc9me2: cysteine 9 (K9C) alkylated with (2-chloroethyl)-dimethylammonium chloride to the methyl-lysine analog of dimethyl-lysine
notes: Histone H3 residues 1-32; The removal of the His6-SUMO tag is told only through 'initial purification as described above'; also called H3_(1–32)Kc9me2; H3Kc9me2; source: E. coli BL21 DE3 (RIL), purified (HiTrap SP HP), alkylated, purified again (HiTrap SP HP); not shown: His6-SUMO, N-terminal, cleaved
  stoichiometry N: 2 peptides per ZMET2 complex
